Results on three substances are retold here after patent publication US20220403023A1.

In assay [1] the target is human CD47 on engineered CHO-K1 cells (human) (UniProt Q08722). Briefly: FACS on CHO-K1 cells expressing human CD47 (CHOK1-huCD47), goat anti-human IgG-Fc PE; blank (Neg) 34.8.
Assay [2] deals with CD47 on human red blood cells (human) (UniProt Q08722). The experiment in a line: FACS on human red blood cells, goat anti-human IgG-Fc PE; blank (Neg) 232.
In assay [3] the target is cynomolgus monkey CD47 on engineered CHO-K1 cells (cynomolgus monkey). The experiment in a line: FACS on CHO-K1 cells expressing cynomolgus CD47 (CHOK1-cynoCD47), goat anti-human IgG-Fc PE; blank (Neg) 47.6.
Assay [4] has as its target human CD47 ECD protein (human) (UniProt Q08722). Briefly: competition ELISA against human SIRPα-His (1 µg/mL) on plate-coated human CD47 ECD; ligand only 1.438. On the technique in general: An ELISA detects its analyte on a solid surface through an enzyme-linked reagent.
Assay [5] has the same target. Briefly: ELISA on plate-coated human CD47 ECD (1 µg/mL), goat anti-human IgG-Fc-HRP, OD450; blank (Neg) 0.102.
Assay [6] has as its target human CD47 on engineered CHO-K1 cells (human) (UniProt Q08722). The experiment in a line: competition FACS against human SIRPα-His (1 µg/mL) on CHOK1-huCD47 cells; ligand only 1086.
Assay [7] has as its target CD47 on human origin tumor cells (human) (UniProt Q08722). Briefly: FACS on A375 cells.
The target is the same in assay [8]. Briefly: FACS on HT29 cells.
For assay [9] the target is unchanged. The experiment in a line: FACS on Jurkat.268 cells.
Assay [10] has the same target. The experiment in a line: FACS on A431 cells.
Assay [11] shares this target. The experiment in a line: FACS on HepG2 cells.
The target is the same in assay [12]. The experiment in a line: FACS on BT474 cells.
Assay [13] has the same target. Briefly: FACS on Hut78 cells.
Assay [14] shares this target. Briefly: FACS on FaOb cells.
The target is the same in assay [15]. The experiment in a line: FACS on 293F cells.
For assay [16] the target is unchanged. Briefly: FACS on Ramos cells.
Assay [17] has the same target. Briefly: FACS on MDA-MB-453 cells.
Assay [18] shares this target. Briefly: FACS on CaLu-6 cells.
For assay [19] the target is unchanged. Briefly: FACS on BxPC-3 cells.
The target of assay [20] is HER3.his (Homo sapiens (Human)) (UniProt P21860). Briefly: non-specific binding ELISA, protein coated 1 µg/mL.
In assay [21] the target is PD-1.his (Homo sapiens (Human)) (UniProt Q15116). The experiment in a line: non-specific binding ELISA, protein coated 1 µg/mL.
In a further assay the target is CTLA4.his. Briefly: non-specific binding ELISA, protein coated 1 µg/mL.
Another assay concerns the target CD40.his. Briefly: non-specific binding ELISA, protein coated 1 µg/mL.
The target of the next assay is 4-1B8.his. Briefly: non-specific binding ELISA, protein coated 1 µg/mL.
In a further assay the target is HSA. (UniProt P02768). The experiment in a line: non-specific binding ELISA, protein coated 1 µg/mL.
For another assay, the target named is FGFR.his. Briefly: non-specific binding ELISA, protein coated 1 µg/mL.
The target in the next assay is CD22.his. Briefly: non-specific binding ELISA, protein coated 1 µg/mL.
The next assay addresses VEGF.his. The experiment in a line: non-specific binding ELISA, protein coated 1 µg/mL.
The target in a further assay is VEGFR2.his. The experiment in a line: non-specific binding ELISA, protein coated 1 µg/mL.
The target of the next assay is CD3.his. The experiment in a line: non-specific binding ELISA, protein coated 1 µg/mL.
A further assay deals with Factor Eight. Briefly: non-specific binding ELISA, protein coated 1 µg/mL.
The next assay concerns the target CD147.his. Briefly: non-specific binding ELISA, protein coated 1 µg/mL.
A further assay deals with OX40.his. Briefly: non-specific binding ELISA, protein coated 1 µg/mL.
The target in assay [22] is CD47 on human origin tumor cells (human) (UniProt Q08722). Briefly: FACS on A204 cells.

Sequence of 4-1B8.his (Q07011 24-186): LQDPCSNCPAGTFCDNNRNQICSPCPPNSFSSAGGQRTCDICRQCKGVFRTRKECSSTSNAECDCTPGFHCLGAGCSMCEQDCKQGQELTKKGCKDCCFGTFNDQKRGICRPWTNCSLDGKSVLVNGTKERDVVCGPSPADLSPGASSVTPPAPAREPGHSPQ
Sequence of VEGFR2.his (P35968 20-764): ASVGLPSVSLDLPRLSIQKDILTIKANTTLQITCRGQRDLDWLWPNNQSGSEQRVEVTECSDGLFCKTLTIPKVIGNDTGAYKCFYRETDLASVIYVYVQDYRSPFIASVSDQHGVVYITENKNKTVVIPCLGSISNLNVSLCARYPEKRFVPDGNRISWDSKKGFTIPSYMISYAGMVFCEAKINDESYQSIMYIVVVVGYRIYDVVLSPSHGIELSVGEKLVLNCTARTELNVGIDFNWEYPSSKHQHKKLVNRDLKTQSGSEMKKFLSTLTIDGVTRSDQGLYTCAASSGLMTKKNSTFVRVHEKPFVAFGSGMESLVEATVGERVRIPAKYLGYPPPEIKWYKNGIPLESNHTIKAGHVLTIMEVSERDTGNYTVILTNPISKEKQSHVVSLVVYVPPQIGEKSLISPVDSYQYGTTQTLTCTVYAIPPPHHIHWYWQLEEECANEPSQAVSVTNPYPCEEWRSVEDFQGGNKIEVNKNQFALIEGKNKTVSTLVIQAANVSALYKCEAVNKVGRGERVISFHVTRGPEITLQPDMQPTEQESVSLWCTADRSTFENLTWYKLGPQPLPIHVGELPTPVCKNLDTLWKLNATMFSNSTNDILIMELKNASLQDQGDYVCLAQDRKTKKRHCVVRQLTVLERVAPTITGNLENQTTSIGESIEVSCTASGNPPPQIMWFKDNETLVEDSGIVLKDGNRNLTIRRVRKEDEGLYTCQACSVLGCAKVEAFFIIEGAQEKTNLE
Sequence of OX40.his (P43489 29-214): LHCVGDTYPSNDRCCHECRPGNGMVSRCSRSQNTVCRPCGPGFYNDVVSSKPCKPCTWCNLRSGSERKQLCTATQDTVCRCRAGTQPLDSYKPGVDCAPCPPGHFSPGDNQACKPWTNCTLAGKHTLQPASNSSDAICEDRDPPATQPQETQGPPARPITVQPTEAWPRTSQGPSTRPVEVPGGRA
Sequence of CTLA4.his (P16410 36-161): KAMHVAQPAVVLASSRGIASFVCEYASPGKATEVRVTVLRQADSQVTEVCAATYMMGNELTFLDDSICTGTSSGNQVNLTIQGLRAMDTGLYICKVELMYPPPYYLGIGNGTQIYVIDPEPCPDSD
Sequence of PD-1.his (Homo sapiens (Human)) (Q15116 25-170 limits assumed): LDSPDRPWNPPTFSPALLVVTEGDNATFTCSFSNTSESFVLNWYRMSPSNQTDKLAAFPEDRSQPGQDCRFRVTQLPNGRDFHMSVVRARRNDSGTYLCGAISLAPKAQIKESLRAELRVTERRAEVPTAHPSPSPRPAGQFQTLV
Sequence of CD40.his (P25942 21-193): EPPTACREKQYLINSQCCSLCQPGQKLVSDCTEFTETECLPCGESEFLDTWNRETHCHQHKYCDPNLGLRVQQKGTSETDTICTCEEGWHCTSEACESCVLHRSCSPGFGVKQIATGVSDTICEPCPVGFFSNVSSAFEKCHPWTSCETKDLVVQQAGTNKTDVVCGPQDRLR

Regarding IgG4 isotype control (antibody), the Max MFI worked out at 66 MFI in [1], 238 MFI in [2] and 97.9 MFI in [3]. Besides, the Max Inhibit% is 21.2% in assay [4] and 12.2% in assay [6]. In [4], this substance yielded a Min OD of 1.13 OD450. In assay [5], the Max OD is 0.123 OD450. In assay [6], the Min MFI was found to be 953 MFI.
For hIgG4K Isotype control (antibody), the MFI in assay [7] is 22.8; in assay [8], 44.3; in assay [9] it was 36.9; in [10], 39.5; in [11], 32.2; in [12], 20.8. In addition, the MFI is 49.7 in [13]; 36.2 in assay [14]; 56.4 in assay [15]; 74.4 in assay [16]; 32.2 in [17]; 23.3 in [18]. The MFI in [19] is 42.9; in assay [22] it was 34.7. In addition, the ELISA-OD450 in assay [20] was 0.044; in assay [21], 3.71; with CTLA4.his, 0.0562; with CD40.his it was 0.213; with 4-1B8.his, 0.0463; with HSA., 0.322. For the same substance, the ELISA-OD450 turned out to be 0.133 with FGFR.his; 0.0451 with CD22.his; 0.0452 with VEGF.his; 0.0432 with VEGFR2.his; 0.0479 with CD3.his; 0.181 with Factor Eight. Further, the figures for the ELISA-OD450 with CD147.his and in the assay with OX40.his were 0.0424 and 0.0508, respectively.
On to hIgG4L Isotype control (antibody), for which the MFI in assay [7] amounted to 49.5; in [8], 45.7; in assay [9], 64.3; in assay [10] it was 251; in assay [11], 27.3; in assay [12], 19.1. Besides, the MFI worked out at 50.2 in assay [13]; 429 in assay [14]; 28.7 in assay [15]; 68.4 in [16]; 28.3 in [17]; 88.4 in assay [18]. In addition, the MFI turned out to be 110 in assay [19] and 42.4 in [22]. The ELISA-OD450 in [20] is 0.0445; in [21], 0.227; with CTLA4.his it was 0.0571; with CD40.his it was 0.205; with 4-1B8.his, 0.0463; with HSA. it was 0.335. Besides, the ELISA-OD450 with FGFR.his is 0.137; with CD22.his it was 0.0467; with VEGF.his it was 0.0463; in the assay with VEGFR2.his it was 0.0441; with CD3.his, 0.0518; with Factor Eight it was 0.0481. Also, the ELISA-OD450 with CD147.his was 0.0443; in the assay with OX40.his it was 0.051.
